This note sets out measurements from patent EP0693936B1.

For the assay, the target named is native OmpL1, 31-kDa outer membrane protein of Leptospira alstoni (Leptospira alstoni). The experiment in a line: immunoelectron microscopy of intact L. alstoni, protein G-colloidal gold (control serum).

Take “preimmune serum from the same rabbit as the anti-OmpL1 antiserum (control serum)”: the gold particles per twenty organisms (particles per twenty organisms) is 1.
